Experimental data taken from US20150023971A1.

Experiments:
[1] = biological target: T1, …; experiment: SPOT length analysis, dot 4, HRP-S-protein detection
T1 sequence (peptide): RIFRSSDFAKNFVQ

[2] = biological target: T2, …; experiment: SPOT length analysis, dot 8, HRP-S-protein detection
T2 sequence (peptide): IFRSSDFAKNFVQ

[3] = biological target: T3, …; experiment: SPOT length analysis, dot 9, HRP-S-protein detection
T3 sequence (peptide): FRSSDFAKNFVQT

[4] = biological target: T4, …; experiment: SPOT length analysis, dot 10, HRP-S-protein detection
T4 sequence (peptide): RSSDFAKNFVQTD

[5] = biological target: T5, …; experiment: SPOT length analysis, dot 12, HRP-S-protein detection
T5 sequence (peptide): IFRSSDFAKNFV

[6] = biological target: T6, …; experiment: SPOT length analysis, dot 14, HRP-S-protein detection
T6 sequence (peptide): RSSDFAKNFVQT

[7] = biological target: T7, …; experiment: SPOT length analysis, dot 15, HRP-S-protein detection
T7 sequence (peptide): SSDFAKNFVQTD

[8] = biological target: T8, …; experiment: SPOT length analysis, dot 19, HRP-S-protein detection
T8 sequence (peptide): RSSDFAKNFVQ

[9] = biological target: T9, …; experiment: SPOT length analysis, dot 20, HRP-S-protein detection
T9 sequence (peptide): SSDFAKNFVQT

[10] = biological target: T10, …; experiment: SPOT length analysis, dot 21, HRP-S-protein detection
T10 sequence (peptide): SDFAKNFVQTD

[11] = biological target: T11, …; experiment: SPOT length analysis, dot 25, HRP-S-protein detection
T11 sequence (peptide): RSSDFAKNFV

[12] = biological target: T12, …; experiment: SPOT length analysis, dot 28, HRP-S-protein detection
T12 sequence (peptide): DFAKNFVQTD

[13] = biological target: T13, …; experiment: SPOT length analysis, dot 29, HRP-S-protein detection
T13 sequence (peptide): RIFRSSDFA

[14] = biological target: T14, …; experiment: SPOT length analysis, dot 32, HRP-S-protein detection
T14 sequence (peptide): RSSDFAKNF

[15] = biological target: T15, sortilin peptide … on SPOT membrane; experiment: SPOT length analysis, dot 36, HRP-S-protein detection
T15 sequence (peptide, C-terminus anchored to the cellulose membrane through a beta-alanine linker): FAKNFVQTD

IFRSSDFA = biological target: T16, IFRSSDFA; experiment: SPOT length analysis, dot 38, HRP-S-protein detection
T16 sequence (peptide): IFRSSDFA

[16] = biological target: T1, …; experiment: SPOT length analysis, dot 4, anti-histidine detection
AKNFVQTD = biological target: T17, AKNFVQTD; experiment: SPOT length analysis, dot 45, HRP-S-protein detection
T17 sequence (peptide): AKNFVQTD

IFRSSDF = biological target: T18, IFRSSDF; experiment: SPOT length analysis, dot 47, HRP-S-protein detection
T18 sequence (peptide): IFRSSDF

AKNFVQT = biological target: T19, AKNFVQT; experiment: SPOT length analysis, dot 54, HRP-S-protein detection
T19 sequence (peptide): AKNFVQT

KNFVQTD = biological target: T20, KNFVQTD; experiment: SPOT length analysis, dot 55, HRP-S-protein detection
T20 sequence (peptide): KNFVQTD

[17] = biological target: T21, …; experiment: SPOT length analysis, dot 6, anti-histidine detection
T21 sequence (peptide): FRSSDFAKNFVQTD

AKNFVQ [18] = biological target: T22, AKNFVQ; experiment: SPOT length analysis, dot 64, HRP-S-protein detection
T22 sequence (peptide): AKNFVQ

SSDFA [19] = biological target: T23, SSDFA; experiment: SPOT length analysis, dot 71, HRP-S-protein detection
T23 sequence (peptide): SSDFA

FAKNF [20] = biological target: T24, FAKNF; experiment: SPOT length analysis, dot 74, HRP-S-protein detection
T24 sequence (peptide): FAKNF

KNFVQ [21] = biological target: T25, KNFVQ; experiment: SPOT length analysis, dot 76, HRP-S-protein detection
T25 sequence (peptide): KNFVQ

NFVQT = biological target: T26, NFVQT; experiment: SPOT length analysis, dot 77, HRP-S-protein detection
T26 sequence (peptide): NFVQT

SDFA = biological target: T27, SDFA; experiment: SPOT length analysis, dot 84, HRP-S-protein detection
T27 sequence (peptide): SDFA

[22] = biological target: T4, …; experiment: SPOT length analysis, dot 10, anti-histidine detection
[23] = biological target: T7, …; experiment: SPOT length analysis, dot 15, anti-histidine detection
[24] = biological target: T28, …; experiment: SPOT length analysis, dot 24, anti-histidine detection
T28 sequence (peptide): FRSSDFAKNF

[25] = biological target: T11, …; experiment: SPOT length analysis, dot 25, anti-histidine detection
[26] = biological target: T29, …; experiment: SPOT length analysis, dot 33, anti-histidine detection
T29 sequence (peptide): SSDFAKNFV

[27] = biological target: T30, sortilin peptide RIFRSSDF on SPOT membrane; experiment: SPOT length analysis, dot 37, anti-histidine detection
T30 sequence (peptide, C-terminus anchored to the cellulose membrane through a beta-alanine linker): RIFRSSDF

FRSSDFAK = biological target: T31, FRSSDFAK; experiment: SPOT length analysis, dot 39, anti-histidine detection
T31 sequence (peptide): FRSSDFAK

SDFAKNFV = biological target: T32, SDFAKNFV; experiment: SPOT length analysis, dot 42, anti-histidine detection
T32 sequence (peptide): SDFAKNFV

SSDFAKN = biological target: T33, SSDFAKN; experiment: SPOT length analysis, dot 50, anti-histidine detection
T33 sequence (peptide): SSDFAKN

FAKNFVQ = biological target: T34, FAKNFVQ; experiment: SPOT length analysis, dot 53, anti-histidine detection
T34 sequence (peptide): FAKNFVQ

RIFRSS = biological target: T35, RIFRSS; experiment: SPOT length analysis, dot 56, anti-histidine detection
T35 sequence (peptide): RIFRSS

DFAKNF = biological target: T36, DFAKNF; experiment: SPOT length analysis, dot 62, anti-histidine detection
T36 sequence (peptide): DFAKNF

AKNFVQ [28] = biological target: T22, AKNFVQ; experiment: SPOT length analysis, dot 64, anti-histidine detection
RSSDF = biological target: T37, RSSDF; experiment: SPOT length analysis, dot 70, anti-histidine detection
T37 sequence (peptide): RSSDF

SSDFA [29] = biological target: T23, SSDFA; experiment: SPOT length analysis, dot 71, anti-histidine detection
FAKNF [30] = biological target: T24, FAKNF; experiment: SPOT length analysis, dot 74, anti-histidine detection
KNFVQ [31] = biological target: T25, KNFVQ; experiment: SPOT length analysis, dot 76, anti-histidine detection
FVQTD = biological target: T38, FVQTD; experiment: SPOT length analysis, dot 78, anti-histidine detection
T38 sequence (peptide): FVQTD

SSDF = biological target: T39, SSDF; experiment: SPOT length analysis, dot 83, anti-histidine detection
T39 sequence (peptide): SSDF

DFAK = biological target: T40, DFAK; experiment: SPOT length analysis, dot 85, anti-histidine detection
T40 sequence (peptide): DFAK

NFVQ = biological target: T41, NFVQ; experiment: SPOT length analysis, dot 89, anti-histidine detection
T41 sequence (peptide): NFVQ

B1: recombinant his-S-tagged pro-domain of human BDNF (residues Ala1-Arg110), from pET-30 Xa/LIC, E. coli (protein, not shown: small tags and cut ends)
chain: APMKEANIRGQGGLAYPGVRTHGTLESVNGPKAGSGLTSLADTFEHVIEELLDEDQKVRPNEENNKDADLYTSRVMLSSQVPLEPPLLFLLEEYKNYLDAANMSMRVRR
BLU Sprotein [1]: 172000 BLU
BLU Sprotein [2]: 126000 BLU
BLU Sprotein [3]: 223000 BLU
BLU Sprotein [4]: 20700 BLU
BLU Sprotein [5]: 199000 BLU
BLU Sprotein [6]: 24600 BLU
BLU Sprotein [7]: 22400 BLU
BLU Sprotein [8]: 22400 BLU
BLU Sprotein [9]: 18400 BLU
BLU Sprotein [10]: 16900 BLU
BLU Sprotein [11]: 25400 BLU
BLU Sprotein [12]: 19000 BLU
BLU Sprotein [13]: 60900 BLU
BLU Sprotein [14]: 19500 BLU
BLU Sprotein [15]: 18800 BLU
BLU Sprotein (IFRSSDFA): 24400 BLU
BLU His [16]: 141000 BLU
BLU Sprotein (AKNFVQTD): 15300 BLU
BLU Sprotein (IFRSSDF): 27800 BLU
BLU Sprotein (AKNFVQT): 16700 BLU
BLU Sprotein (KNFVQTD): 16800 BLU
BLU His [17]: 18800 BLU
BLU Sprotein (AKNFVQ [18]): 14100 BLU
BLU Sprotein (SSDFA [19]): 14700 BLU
BLU Sprotein (FAKNF [20]): 17500 BLU
BLU Sprotein (KNFVQ [21]): 15700 BLU
BLU Sprotein (NFVQT): 15600 BLU
BLU Sprotein (SDFA): 13300 BLU
BLU His [22]: 19800 BLU
BLU His [23]: 19200 BLU
BLU His [24]: 20100 BLU
BLU His [25]: 23000 BLU
BLU His [26]: 18900 BLU
BLU His [27]: 116000 BLU
BLU His (FRSSDFAK): 19000 BLU
BLU His (SDFAKNFV): 16300 BLU
BLU His (SSDFAKN): 16700 BLU
BLU His (FAKNFVQ): 69600 BLU
BLU His (RIFRSS): 122000 BLU
BLU His (DFAKNF): 15200 BLU
BLU His (AKNFVQ [28]): 15600 BLU
BLU His (RSSDF): 16100 BLU
BLU His (SSDFA [29]): 15800 BLU
BLU His (FAKNF [30]): 31900 BLU
BLU His (KNFVQ [31]): 18200 BLU
BLU His (FVQTD): 22400 BLU
BLU His (SSDF): 14100 BLU
BLU His (DFAK): 14400 BLU
BLU His (NFVQ): 14700 BLU
